Experimental data as given in PMC3869376, “Inflammation produces catecholamine resistance in obesity via activation of PDE3B by the protein kinases IKKε and TBK1” (eLife, 2013).

Target: T1, HA-PDE3B (human) phosphorylated by co-expressed Flag-TBK1 (human, UniProt Q13370 1-1112, phosphorylated by co-expressed TBK1; serines 22, 299, 318, 381, 463, 467 and 503 found phosphorylated by LC-MS/MS (HA-PDE3B from Cos-1 cells))
T1 construct: Phosphodiesterase 3B (PDE3B), human cDNA (from Dr Morris Birnbaum); The phosphorylation sites were mapped in Cos-1 cells; also called phosphorylated PDE3B; the wild-type protein; source: HEK293T, transfected together with Flag-TBK1, in lysate; immunoprecipitated for the overlay
T1 sequence (Q13370 whole entry): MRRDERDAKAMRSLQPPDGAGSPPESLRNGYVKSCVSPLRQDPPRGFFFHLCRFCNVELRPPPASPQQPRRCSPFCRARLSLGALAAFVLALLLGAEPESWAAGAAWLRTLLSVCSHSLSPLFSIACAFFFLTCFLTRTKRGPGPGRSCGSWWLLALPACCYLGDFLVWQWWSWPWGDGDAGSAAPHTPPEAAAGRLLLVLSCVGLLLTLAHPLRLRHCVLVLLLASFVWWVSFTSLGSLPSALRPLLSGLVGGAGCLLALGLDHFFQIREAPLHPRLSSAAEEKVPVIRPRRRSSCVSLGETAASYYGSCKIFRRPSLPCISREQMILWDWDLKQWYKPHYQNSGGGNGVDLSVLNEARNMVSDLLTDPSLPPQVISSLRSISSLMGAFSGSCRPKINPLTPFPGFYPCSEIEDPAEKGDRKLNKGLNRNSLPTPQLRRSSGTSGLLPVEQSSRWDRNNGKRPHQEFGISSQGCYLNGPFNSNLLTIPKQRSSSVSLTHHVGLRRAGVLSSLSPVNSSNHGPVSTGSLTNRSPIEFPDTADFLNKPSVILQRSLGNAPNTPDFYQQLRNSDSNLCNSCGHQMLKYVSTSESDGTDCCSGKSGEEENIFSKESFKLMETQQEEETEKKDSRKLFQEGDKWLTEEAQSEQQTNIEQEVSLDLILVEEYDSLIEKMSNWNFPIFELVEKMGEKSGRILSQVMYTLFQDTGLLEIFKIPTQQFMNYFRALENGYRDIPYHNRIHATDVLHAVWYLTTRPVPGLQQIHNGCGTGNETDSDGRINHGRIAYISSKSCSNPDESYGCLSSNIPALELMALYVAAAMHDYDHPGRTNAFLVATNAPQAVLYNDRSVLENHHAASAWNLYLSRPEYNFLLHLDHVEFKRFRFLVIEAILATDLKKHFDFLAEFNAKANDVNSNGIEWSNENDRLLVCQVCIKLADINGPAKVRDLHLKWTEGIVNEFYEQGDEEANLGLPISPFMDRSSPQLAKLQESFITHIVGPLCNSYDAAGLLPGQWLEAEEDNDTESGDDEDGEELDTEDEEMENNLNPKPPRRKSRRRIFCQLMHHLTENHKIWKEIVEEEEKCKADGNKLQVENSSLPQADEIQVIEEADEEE
Test: pull-down; GST or GST-14-3-3β on glutathione beads incubated 1.5 hr at 4°C with cleared lysates of HEK293T cells co-expressing HA-PDE3B and Flag-TBK1 or K38A; PD buffer 15 mM Tris pH 7.5, 150 mM NaCl, 0.5% NP-40, 1 mM DTT
Conditions: one partner purified

binding result: binds
B1: GST-14-3-3β fusion protein (natural protein, human, UniProt P31946 1-246, looked up)
chain: MTMDKSELVQKAKLAEQAERYDDMAAAMKAVTEQGHELSNEERNLLSVAYKNVVGARRSSWRVISSIEQKTERNEKKQQMGKEYREKIEAELQDICNDVLELLDKYLIPNATQPESKVFYLKMKGDYFRYLSEVASGDNKQTTVSNSQQAYQEAFEISKKEMQPTHPIRLGLALNFSVFYYEILNSPEKACSLAKTAFDEAIAELDTLNEESYKDSTLIMQLLRDNLTLWTSENQGDEGDAGEGEN
modifications: DIG-labelled (DIG-NHS) in the overlay assay only
notes: 14-3-3β, human cDNA (from Dr Ken Inoki) subcloned into pGEX-4T-1; source: eluted with glutathione for the overlay
